The values that follow come from US20040005687A1, “Kinase crystal structures” (priority 2001, published 2004).

One may read the Kd as the equilibrium constant for the complex coming apart. A high value points to a looser complex.

Where two headings read alike, the source gives them in different places. Square brackets hold non-standard residues; d marks the D form. Ends that are not written are not given here. Peptide text beside a SMILES is read from it. pS = N[C@@H](COP(=O)(O)O)C(=O)O

The target of data set [1] is T1, pΔPH-PKB-ΔC (PKBβ residues 146 to 460, phosphorylated in vitro on Thr-309) (Homo sapiens, UniProt P31751).
T1 construct: pΔPH-PKB-ΔC (residues 146 to 460, phosphorylated in vitro on Thr-309); 6xHis (pFastBacHTa, TEV-cleavable) (N, cleaved yes); made in house; host or cells: Sf9 insect cells / baculovirus
Briefly: Protein kinase B assay, peptide stimulation of pΔPH-PKB-ΔC (Crosstide substrate). The format is biochemical. As to conditions: for maximal fold induction at 600 µM: read-out: maximum activation (fold stimulation) of pΔPH-PKB-ΔC kinase activity; for fold lower affinity than PIFtide (from EC50 values): relative to PIFtide. The method, then:
To test the model that Ser 474 phosphorylation promotes an interaction between the hydrophobic motif and the induced hydrophobic groove of the N-terminal lobe, thereby causing an allosteric activation of the kinase, the ability of peptides modelled on the hydrophobic motif of PKB to activate the enzyme via an intermolecular association with the N-terminal lobe was assessed.
(§1) PKB was assayed essentially as described by Andjelkovic et al. (1999) with 30 μM Crosstide (GRPRTSSAEG) as substrate except the protein kinase A inhibitor peptide was not added to the reactions. For peptide stimulation experiments the various peptides were dissolved in water and added to the kinase assay mix prior to adding the PKB protein. Peptides were synthesized by Franz Fischer at the FMI or purchased from Neosystem, Strasburg, France.
(§2) All experiments were performed in either duplicate or triplicate.

For data set [2], the target named is T2, ΔPH-PKB phosphorylated on Thr 309 (Homo sapiens, UniProt P31751).
T2 construct: ΔPH-PKBβ (residues 146-481) on Thr309 Using PDK1; 6xHis (pFastBacHTa, TEV-cleavable) (N, cleaved yes); made in house; host or cells: Sf9 insect cells / baculovirus
The data set can be described thus: Protein kinase B assay, peptide stimulation of ΔPH-PKB phosphorylated on Thr 309. The format is biochemical. The protocol: as §1, §2

For data set [3], the target named is T3, His tagged pΔPH-PKB-ΔC wild type (Homo sapiens, UniProt P31751).
T3 construct: pΔPH-PKB-ΔC (residues 146 to 460, phosphorylated in vitro on Thr-309); His tag; made in house; host or cells: HEK cells (transient expression), purified on Ni-NTA
Briefly: PIFtide responsiveness of His tagged pΔPH-PKB-ΔC wild type expressed in HEK cells. The format is biochemical. The method, then:
To test the notion that a hydrophobic groove is induced in PKB to engage the hydrophobic motif, and activate the kinase, a series of His tagged pΔPH-PKB-ΔC hydrophobic groove mutants was prepared and their responsiveness to PIFtide assessed. PKB mutants were transiently expressed in HEK cells, phosphorylated in vitro with PDK1, and purified using Ni-NTA agarose.
Wild type PKB prepared using this procedure was stimulated ˜5-fold by 130 μM PIFtide (FIG. 6B).
as §1

In data set [4] the target is T4, ΔPH-PKB-ΔC (PKBβ residues 146 to 460, not phosphorylated on Thr-309) (Homo sapiens, UniProt P31751).
T4 construct: ΔPH-PKB-ΔC(residues 146 to 460, not phosphorylated on Thr-309); 6xHis (pFastBacHTa, TEV-cleavable) (N, cleaved yes); made in house; host or cells: Sf9 insect cells / baculovirus
Briefly: Protein kinase B assay, peptide stimulation of ΔPH-PKB-ΔC with unphosphorylated Thr 309. The format is biochemical. The method, then: as §1, §2

Data set [5] deals with T5, ΔPH-PKB phosphorylated on both Thr 309 and Ser 474 (Homo sapiens, UniProt P31751).
T5 construct: ΔPH-PKBβ (residues 146-481) on Thr309 Using PDK1; 6xHis (pFastBacHTa, TEV-cleavable) (N, cleaved yes); made in house; host or cells: Sf9 insect cells / baculovirus
Briefly: Protein kinase B assay, peptide stimulation of ΔPH-PKB phosphorylated on both Thr 309 and Ser 474. The format is biochemical. The method, then: as §1, §2

The target in data set [6] is His tagged pΔPH-PKB-ΔC V194A-V198A mutant (human) (UniProt P31751). Briefly: cell-based or functional assay.
The target in data set [7] is His tagged pΔPH-PKB-ΔC, wild type, expressed in HEK cells (human) (UniProt P31751). Briefly: cell-based or functional assay.
Data set [8] has as its target pΔPH-PKBβ-ΔC (human PKBβ residues 146-460, phosphorylated in vitro on Thr-309) (human) (UniProt P31751). Briefly: cell-based or functional assay.
The target of data set [9] is ΔPH-PKB (human PKBβ residues 146-481) phosphorylated on Thr 309 (human) (UniProt P31751). The data set can be described thus: cell-based or functional assay.
In data set [10] the target is ΔPH-PKBβ-ΔC (human PKBβ residues 146-460, not phosphorylated on Thr-309) (human) (UniProt P31751). Briefly: isothermal titration calorimetry. A general note: In ITC the heat of successive injections is recorded.
The target of data set [11] is pΔPH-PKBβ-ΔC (human PKBβ residues 146-460, phosphorylated in vitro on Thr-309) (human) (UniProt P31751). The data set can be described thus: isothermal titration calorimetry, PIFtide titrated into the kinase domain.
Data set [12] concerns the target ΔPH-PKBβ-ΔC (human PKBβ residues 146-460, not phosphorylated on Thr-309) (human) (UniProt P31751). Described as above.
Data set [13] addresses pΔPH-PKBβ-ΔC (human PKBβ residues 146-460, phosphorylated in vitro on Thr-309) (human) (UniProt P31751). Briefly: cell-based or functional assay. This is another data set of the same source.

T1 sequence (P31751 146-460, stated change not applied): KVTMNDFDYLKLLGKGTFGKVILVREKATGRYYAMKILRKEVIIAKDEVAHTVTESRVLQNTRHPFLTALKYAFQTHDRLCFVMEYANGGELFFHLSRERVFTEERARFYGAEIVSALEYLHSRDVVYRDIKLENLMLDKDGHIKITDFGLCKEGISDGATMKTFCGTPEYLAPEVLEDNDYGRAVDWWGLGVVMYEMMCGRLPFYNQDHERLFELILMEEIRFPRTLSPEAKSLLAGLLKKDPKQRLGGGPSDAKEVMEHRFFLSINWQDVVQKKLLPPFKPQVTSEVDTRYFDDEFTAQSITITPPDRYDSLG
T3 sequence (P31751 146-460, stated change not applied): as above
T5 sequence (P31751 146-481, stated change not applied): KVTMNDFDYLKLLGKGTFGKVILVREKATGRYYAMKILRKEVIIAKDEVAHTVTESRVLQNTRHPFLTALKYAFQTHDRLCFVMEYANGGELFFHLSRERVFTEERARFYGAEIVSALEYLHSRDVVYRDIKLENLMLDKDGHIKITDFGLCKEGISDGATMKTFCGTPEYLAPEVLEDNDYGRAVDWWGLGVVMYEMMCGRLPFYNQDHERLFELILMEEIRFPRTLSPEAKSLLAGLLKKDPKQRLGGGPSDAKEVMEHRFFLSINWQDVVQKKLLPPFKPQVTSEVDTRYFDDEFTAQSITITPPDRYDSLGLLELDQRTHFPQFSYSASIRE
T2 sequence (P31751 146-481, stated change not applied): as above
T4 sequence (P31751 146-460, stated change not applied): as the sequence (P31751 146-460, stated change not applied) above
Chain of His tagged pΔPH-PKB-ΔC, wild type, expressed in HEK cells (human) (P31751 146-460, stated change not applied): as above
Chain of His tagged pΔPH-PKB-ΔC V194A-V198A mutant (human) (P31751 146-460 V194A/V198A): as the sequence (P31751 146-460, stated change not applied) above, with V49A, V53A counted along it

With `CC[C@H](C)[C@H](NC(=O)[C@H](Cc1ccc(O)cc1)NC(=O)[C@H](CC(=O)O)NC(=O)[C@H](Cc1ccccc1)NC(=O)[C@H](CC(=O)O)NC(=O)[C@H](CCCNC(=N)N)NC(=O)[C@H](Cc1ccccc1)NC(=O)[C@H](CCSC)NC(=O)[C@H](CCC(=O)O)NC(=O)[C@H](CCC(N)=O)NC(=O)[C@H](CCC(=O)O)NC(=O)[C@H](CCC(=O)O)NC(=O)[C@H](CCC(=O)O)NC(=O)[C@H](CO)NC(=O)[C@H](CC(C)C)NC(=O)[C@@H](NC(=O)[C@H](CCCNC(=N)N)NC(=O)[C@@H]1CCCN1C(=O)[C@H](CCC(=O)O)NC(=O)[C@@H](N)CCCNC(=N)N)[C@@H](C)CC)C(=O)N[C@@H](C)C(=O)N[C@@H](CC(=O)O)C(=O)N[C@@H](Cc1c[nH]c2ccccc12)C(=O)O` [PIFtide, reference compound] (H-REPRILSEEEQEMFRDFDYIADW-OH; N-terminus and C-terminus assumed), the maximal fold induction at 600 µM in data set [1] turned out to be 15. Also, the “activation of ΔPH-PKB phosphorylated on Thr 309” value in data set [2] was 5 fold. In addition, the fold induction at 130 µM in data set [3] (read-out: stimulation of wild type PKB prepared from HEK cells) is approximately 5.
`CC[C@H](C)[C@H](NC(=O)[C@H](CO)NC(=O)[C@H](C)NC(=O)[C@H](CO)NC(=O)[C@H](Cc1ccc(O)cc1)NC(=O)[C@H](CC(=O)O)NC(=O)[C@H](Cc1ccccc1)NC(=O)[C@H](CCC(N)=O)NC(=O)[C@@H]1CCCN1C(=O)[C@H](Cc1ccccc1)NC(=O)[C@H](Cc1c[nH]cn1)NC(=O)[C@@H](NC(=O)[C@H](CCCNC(=N)N)NC(=O)[C@H](CCC(N)=O)NC(=O)[C@H](CC(=O)O)NC(=O)[C@H](CC(C)C)NC(=O)[C@H](CCC(=O)O)NC(=O)[C@H](CC(C)C)NC(=O)[C@H](CC(C)C)NC(=O)CN)[C@@H](C)O)C(=O)N[C@@H](CCCNC(=N)N)C(=O)N[C@@H](CCC(=O)O)C(=O)O` [PKB HM-D] (H-GLLELDQRTHFPQFDYSASIRE-OH; N-terminus and C-terminus assumed): in data set [1], the maximal fold induction at 600 µM was determined as 3 and the “fold lower affinity than PIFtide (from EC50 values)” value is reported as approximately 1000 fold.
`CC[C@H](C)[C@H](NC(=O)[C@H](CO)NC(=O)[C@H](C)NC(=O)[C@H](CO)NC(=O)[C@H](Cc1ccc(O)cc1)NC(=O)[C@H](COP(=O)(O)O)NC(=O)[C@H](Cc1ccccc1)NC(=O)[C@H](CCC(N)=O)NC(=O)[C@@H]1CCCN1C(=O)[C@H](Cc1ccccc1)NC(=O)[C@H](Cc1c[nH]cn1)NC(=O)[C@@H](NC(=O)[C@H](CCCNC(=N)N)NC(=O)[C@H](CCC(N)=O)NC(=O)[C@H](CC(=O)O)NC(=O)[C@H](CC(C)C)NC(=O)[C@H](CCC(=O)O)NC(=O)[C@H](CC(C)C)NC(=O)[C@H](CC(C)C)NC(=O)CN)[C@@H](C)O)C(=O)N[C@@H](CCCNC(=N)N)C(=O)N[C@@H](CCC(=O)O)C(=O)O` [PKB HM-P, GLLELDQRTHFPQFpSYSASIRE] (H-GLLELDQRTHFPQF[pS]YSASIRE-OH; N-terminus and C-terminus assumed): in [1], the maximal fold induction at 600 µM is 4. Further, the “fold lower affinity than PIFtide (from EC50 values)” value in data set [1] (listed as phosphorylated HM-peptide) is recorded as approximately 1000 fold. For the same molecule, the “activation of ΔPH-PKB-ΔC with unphosphorylated Thr 309 (in words)” value in data set [4] is “unable to activate”. Besides, in data set [5], the “further activation of ΔPH-PKB phosphorylated on both Thr 309 and Ser 474 (in words)” value is given as “did not further activate”. The “activation of wild type PKB prepared from HEK cells (in words)” value in data set [3] is reported as “did not elicit measurable activation”.
Consider GLLELDQRTHFPQFSYSASIRE [PKB HM-S], for which the “stimulation of pΔPH-PKB-ΔC kinase activity (in words)” value in data set [1] (Crosstide substrate, dose response FIG. 5) is “did not stimulate”.
For “MFRDFDYIADW [PIFtide1, 11-residue peptide encompassing the six-residue hydrophobic motif of PIFtide]”, the “activation of pΔPH-PKB-ΔC by modified PIFtide and HM peptides (in words)” value in data set [1] (PIFtide concentrations 210-250 μM, PKB HM-peptide up to 1.2 mM, FIG. 6A) is reported as “essentially recapitulates the activation”.
With PIFtide (peptide), the PIFtide activation relative to wild type (% of wild type) in data set [6] was 25. In [7], this molecule yielded a stimulation of kinase activity by 130 µM PIFtide of 5 fold. In data set [8], this molecule displayed an EC50 of kinase activation of 3 µM, a peptide concentration giving maximum activation of 20 µM, a specific activity when maximally activated by PIFtide of 350 nmol/min/mg and a stimulation of kinase activity towards Crosstide of 15 fold. The molecule also registered a stimulation of kinase activity towards Crosstide in data set [9] of 5 fold. In [10], this molecule had an enthalpy change (ΔH) of -16 kcal/mol and an entropy term (TΔS) of -9.2 kcal/mol. The same molecule displayed a dissociation constant (Kd) in data set [11] of 6 µM. This molecule also registered a Kd in data set [12] of 5.5 µM.
For GLLELDQRTHFPQF[pS]YSASIRE [PKB HM-P], in data set [13], the EC50 of kinase activation (estimated from FIG. 5A) is 2300 µM; the fold lower affinity than PIFtide, from estimated EC50 was 1000 fold; the stimulation of kinase activity towards Crosstide is 4 fold.
For the molecule GLLELDQRTHFPQFDYSASIRE [PKB HM-D], in data set [13], the EC50 of kinase activation (estimated from FIG. 5A) is 3600 µM; the fold lower affinity than PIFtide, from estimated EC50 is 1000 fold; the stimulation of kinase activity towards Crosstide stood at 3 fold.
